Measurements taken from patent US12103979B2, “N-acetylated and non-acetylated dipeptides containing arginine to reduce the viscosity of viscous compositions of therapeutic polypeptides” (AMGEN INC., priority 2017, dated 2024).

Key:
[1] = Viscosity of therapeutic antibodies of Table 1 at exemplary concentration; format: physicochemical; details: at the Conc. (133.9-162.5 mg/ml)
[2] = pI of therapeutic antibodies of Table 1; format: physicochemical

Molecule	Viscosity (cP) [1]	pl [2]
TSLP: therapeutic antibody; IgG2, Lambda; LC SEQ ID NO 69, HC SEQ ID NO 70 (antibody, listed as Homo sapiens) heavy: MGSTAILGLLLAVLQGGRAQMQLVESGGGVVQPGRSLRLSCAASGFTFRTYGMHWVRQAPGKGLEWVAVIWYDGSNKHYADSVKGRFTITRDNSKNTLNLQMNSLRAEDTAVYYCARAPQWELVHEAFDIWGQGTMVTVSSASTKGPSVFPLAPCSRSTSESTAALGCLVKDYFPEPVTVSWNSGALTSGVHTFPAVLQSSGLYSLSSVVTVPSSNFGTQTYTCNVDHKPSNTKVDKTVERKCCVECPPCPAPPVAGPSVFLFPPKPKDTLMISRTPEVTCVVVDVSHEDPEVQFNWYVDGVEVHNAKTKPREEQFNSTFRVVSVLTVVHQDWLNGKEYKCKVSNKGLPAPIEKTISKTKGQPREPQVYTLPPSREEMTKNQVSLTCLVKGFYPSDIAVEWESNGQPENNYKTTPPMLDSDGSFFLYSKLTVDKSRWQQGNVFSCSVMHEALHNHYTQKSLSLSPGK light: MGSTAILGLLLAVLQGGRASYVLTQPPSVSVAPGQTARITCGGNNLGSKSVHWYQQKPGQAPVLVVYDDSDRPSWIPERFSGSNSGNTATLTISRGEAGDEADYYCQVWDSSSDHVVFGGGTKLTVLGQPKAAPSVTLFPPSSEELQANKATLVCLISDFYPGAVTVAWKADSSPVKAGVETTTPSKQSNNKYAASSYLSLTPEQWKSHRSYSCQVTHEGSTVEKTVAPTECS	21.4 cP	7.2
Hepcidin: therapeutic antibody; IgG2, Lambda; LC SEQ ID NO 31, HC SEQ ID NO 32 (antibody, listed as Homo sapiens) heavy: MEFGLSWVFLVALLRGVQCQVQLVESGGGVVQPGRSLRLSCAASGFTFSSYGMHWVRQAPGKGLEWVAVIWYAESNKYYADSVKGRFTISRDNSKNTLYLQMNSLRAEDTAVYYCARAQEGIAPDAFDIWGQGTMVTVSSASTKGPSVFPLAPCSRSTSESTAALGCLVKDYFPEPVTVSWNSGALTSGVHTFPAVLQSSGLYSLSSVVTVPSSNFGTQTYTCNVDHKPSNTKVDKTVERKCCVECPPCPAPPVAGPSVFLFPPKPKDTLMISRTPEVTCVVVDVSHEDPEVQFNWYVDGVEVHNAKTKPREEQFNSTFRVVSVLTVVHQDWLNGKEYKCKVSNKGLPAPIEKTISKTKGQPREPQVYTLPPSREEMTKNQVSLTCLVKGFYPSDIAVEWESNGQPENNYKTTPPMLDSDGSFFLYSKLTVDKSRWQQGNVFSCSVMHEALHNHYTQKSLSLSPGK light: MDMRVPAQLLGLLLLWLRGARCYELTQPPSVSVSPGQTATITCSGDKLGERYASWYQQRPGQSPVLVIYQDIKRPSGIPERFSGSNSGNTATLTISGTQAMDEADYFCQAWYSSTNVLFGGGTKLTVLGQPKAAPSVTLFPPSSEELQANKATLVCLISDFYPGAVTVAWKADSSPVKAGVETTTPSKQSNNKYAASSYLSLTPEQWKSHRSYSCQVTHEGSTVEKTVAPTECS	9.9 cP	7.3
Sclerostin (2B8): therapeutic antibody; IgG2, Lambda; LC SEQ ID NO 79, HC SEQ ID NO 80 (antibody, listed as Homo sapiens) heavy: MEFGLSWVFLVALLRGVQCQVQLVESGGGVVQPGRSLRLSCAASGFTFSSYVMHWVRQAPGKGLEWVAVIWYDGSNKYYADSVKGRFTISRDNSKNTLYLQMNSLRAEDTAVYYCAREGYDYGEDYYYYGMDVWGQGTTVTVSSASTKGPSVFPLAPCSRSTSESTAALGCLVKDYFPEPVTVSWNSGALTSGVHTFPAVLQSSGLYSLSSVVTVPSSNFGTQTYTCNVDHKPSNTKVDKTVERKCCVECPPCPAPPVAGPSVFLFPPKPKDTLMISRTPEVTCVVVDVSHEDPEVQFNWYVDGVEVHNAKTKPREEQFNSTFRVVSVLTVVHQDWLNGKEYKCKVSNKGLPAPIEKTISKTKGQPREPQVYTLPPSREEMTKNQVSLTCLVKGFYPSDIAVEWESNGQPENNYKTTPPMLDSDGSFFLYSKLTVDKSRWQQGNVFSCSVMHEALHNHYTQKSLSLSPGK light: MAWAPLLLTLLAHCTGSWANFMLTQPHSVSESPGKTVAISCTRNSGSIASNSVQWYQQRPGSSPTTVIFEDNQRPSGVPDRFSGSIDSSSNSASLTISGLKTEDEADYYCQSYDSNNWVFGGGTKLTVLGQPKANPTVTLFPPSSEELQANKATLVCLISDFYPGAVTVAWKADGSPVKAGVETTKPSKQSNNKYAASSYLSLTPEQWKSHRSYSCQVTHEGSTVEKTVAPTECS	30.0 cP	6.7
CGRP: therapeutic antibody; IgG2, Lambda; LC SEQ ID NO 29, HC SEQ ID NO 30 (antibody, listed as Homo sapiens) heavy: MEFGLSWVFLVALLRGVQCQVQLVESGGGVVQPGRSLRLSCAASGFTFSSFGMHWVRQAPGKGLEWVAVISFDGSIKYSVDSVKGRFTISRDNSKNTLFLQMNSLRAEDTAVYYCARDRLNYYDSSGYYHYKYYGMAVWGQGTTVTVSSASTKGPSVFPLAPCSRSTSESTAALGCLVKDYFPEPVTVSWNSGALTSGVHTFPAVLQSSGLYSLSSVVTVPSSNFGTQTYTCNVDHKPSNTKVDKTVERKCCVECPPCPAPPVAGPSVFLFPPKPKDTLMISRTPEVTCVVVDVSHEDPEVQFNWYVDGVEVHNAKTKPREEQFNSTFRVVSVLTVVHQDWLNGKEYKCKVSNKGLPAPIEKTISKTKGQPREPQVYTLPPSREEMTKNQVSLTCLVKGFYPSDIAVEWESNGQPENNYKTTPPMLDSDGSFFLYSKLTVDKSRWQQGNVFSCSVMHEALHNHYTQKSLSLSPGK light: MTCSPLLLTLLIHCTGSWAQSVLTQPPSVSAAPGQKVTISCSGSSSNIGNNYVSWYQQLPGTAPKLLIYDNNKRPSGIPDRFSGSKSGTSTTLGITGLQTGDEADYYCGTWDSRLSAVVFGGGTKLTVLGQPKANPTVTLFPPSSEELQANKATLVCLISDFYPGAVTVAWKADGSPVKAGVETTKPSKQSNNKYAASSYLSLTPEQWKSHRSYSCQVTHEGSTVEKTVAPTECS	9.6 cP	8.8
PCSK9: therapeutic antibody; IgG2, Lambda; LC SEQ ID NO 73, HC SEQ ID NO 74 (antibody, listed as Homo sapiens) heavy: MDWTWRILFLVAAATGVHSEVQLVQSGAEVKKPGASVKVSCKASGYTLTSYGISWVRQAPGQGLEWMGWVSFYNGNTNYAQKLQGRGTMTTDPSTSTAYMELRSLRSDDTAVYYCARGYGMDVWGQGTTVTVSSASTKGPSVFPLAPCSRSTSESTAALGCLVKDYFPEPVTVSWNSGALTSGVHTFPAVLQSSGLYSLSSVVTVPSSNFGTQTYTCNVDHKPSNTKVDKTVERKCCVECPPCPAPPVAGPSVFLFPPKPKDTLMISRTPEVTCVVVDVSHEDPEVQFNWYVDGVEVHNAKTKPREEQFNSTFRVVSVLTVVHQDWLNGKEYKCKVSNKGLPAPIEKTISKTKGQPREPQVYTLPPSREEMTKNQVSLTCLVKGFYPSDIAVEWESNGQPENNYKTTPPMLDSDGSFFLYSKLTVDKSRWQQGNVFSCSVMHEALHNHYTQKSLSLSPGK light: MDMRVPAQLLGLLLLWLRGARCESALTQPASVSGSPGQSITISCTGTSSDVGGYNSVSWYQQHPGKAPKLMIYEVSNRPSGVSNRFSGSKSGNTASLTISGLQAEDEADYYCNSYTSTSMVFGGGTKLTVLGQPKAAPSVTLFPPSSEELQANKATLVCLISDFYPGAVTVAWKADSSPVKAGVETTTPSKQSNNKYAASSYLSLTPEQWKSHRSYSCQVTHEGSTVEKTVAPTECS		8.1
Dkk1 (11H10): therapeutic antibody; IgG2, Kappa; LC SEQ ID NO 71, HC SEQ ID NO 72 (antibody, listed as Homo sapiens) heavy: MDIRLSLAFLVLFIKGVQCEVQLVESGGGLVQPANSLKLSCAASGFTFSDYAMAWVRQSPKKGLEWVATIIYDGSSTYYRDSVKGRFTISRDNAKSTLYLQMDSLRSEDTATYYCATGLGIATDYFDYWGQGVLVTVSSAETTAPSVYPLAPGTALKSNSMVTLGCLVKGYFPEPVTVTWNSGALSSGVHTFPAVLQSGLYTLTSSVTVPSSTWPSQTVTCNVAHPASSTKVDKKIVPRNCGGDCKPCICTGSEVSSVFIFPPKPKDVLTITLTPKVTCVVVDISQDDPEVHFSWFVDDVEVHTAQTRPPEEQFNSTFRSVSELPILHQDWLNGRTFRCKVTSAAFPSPIEKTISKPEGRTQVPHVYTMSPTKEEMTQNEVSITCMVKGFYPPDIYVEWQMNGQPQENYKNTPPTMDTDGSYFLYSKLNVKKEKWQQGNTFTCSVLHEGLHNHHTEKSLSHSPGK light: MGVPTHLLGLLLLWITHAICDIRMTQSPASLSASLGETVNIECLASEDIYSDLAWYQQKPGKSPQLLIYNANSLQNGVPSRFSGSGSGTQYSLKINSLQSEDVATYFCQQYNNYPPTFGGGTKLELKRADAAPTVSIFPPSTEQLATGGASVVCLMNNFYPRDISVKWKIDGTERRDGVLDSVTDQDSKDSTYSMSSTLSLTKADYESHNLYTCEVVHKTSSSPVVKSFNRNEC	22.5 cP	8.2
